Assay: soluble on expression in E. coli; label from the status in PepcDB or PDB records

| Sequence | soluble on expression in E. coli |
| --- | --- |
| LQTLPPVQLAQKYFQIFSEEKDPLWQDPCEDKRHKDIWSKEKTCDRFPKLLIIGPQKTGTTALYLFLGMHPDLSSNYPSSETFEEIQFFNGHNYHKGIDWYMEFFPIPSNTTSDFYFEKSANYFDSEVAPRRAAALLPKAKVLTILINPADRAYSWYQHQRAHDDPVALKYTFHEVITAGSDASSKLRALQNRCLVPGWYATHIERWLSAYHANQILVLDGKLLRTEPAKVMDMVQKFLGVTNTIDYHKTLAFDPKKGFWCQLLEGGKTKCLGKSKGRKYPEMDLDSRAFLKDYYRDHNIELSKLLYKMGQTLPTWLREDLQNTR | soluble |
| LRASEIMNRTLDLQIIMDDLLNLLLKEFKLDLAVIRLVDEKGVLRVRSYSGKGIAGIAGKDWEPEIETYIGEAFLSNRLQFVNDTQYMTKPLTRELMQKEGIKSFAHIPISRKGEPPFGILSVFSRTIVGLFNEPFLNLLESLAGQLAQAVKIVTEMEAKEREREEKERILLENA | soluble |
| LSAGALKATASQQDKPESQYGLAGQLQAAAGQQGVTAQQQTRAEAAQQAQLPLQLTKELANEQVAEKVQMMMSKNLKNLDIRLDPPELGRMQIRMTMNNDLANVHFTVTNPQARDIIEQTLPRLREMLAQQGMQLADSSVQQQS | not soluble |
| LSIPEDYQVRLQPTRVAGSYPLVRLEFTGATVDAPLMTQIARKYNIDVSILSSDLDYAGGVKFGMMVAEIFGNADDDEAAIRYLRENNVKVEVLGYVL | not soluble |
| LTCYGDSGQPVDWFVVYKLPALRGSGEAAQRGLQYKYLDESSGGWRDGRALINSPEGAVGRSLQPLYRSNTSQLAFLLYNDQPPQPSKAQDSSMRGHTKGVLLLDHDGGFWLVHSVPNFPPPASSAAYSWPHSACTYGQTLLCVSFPFAQFSKMGKQLTYTYPWVYNYQLEGIFAQEFPDLENVVKGHHVSQEPWNSSITLTSQAGAVFQSFAKFSKFGDDLYSGWLAAALGTNLQVQFWHKTVGILPSNCSDIWQVLNVNQIAFPGPAGPSFNSTEDHSKWCVSPKGPWTCVGDMNRNQGEEQRGGGTLCAQLPALWKAFQPLVKNYQPCNGMARKPSRAYKI | soluble |
| LTFSLNFATSSKDSYGTGWLIDWKGDENKPSNTDPFLIYLATNLHVVDALRNPQDYEPYNKDSNGQDYGNRDITHFFALGKYTD | not soluble |
| LTPIVGPSNFRVQVAADMDFSQVEETREILDNAPVVRNEHTIQNNSIDQIALGVPGSLSNQPPVTGEAATNDSQNTNARSEVNRQYAVGSSVRRTQYQQGQIEKLSVSVLLNSKASPDGVAWSDADKAQISTMITDAVGISAARGDSLSLMSFNF | not soluble |
| MAAASFAPFQDLANLLIPYTHAEKIDGSHDVSHLLRVWKNVCAIRDREGGDARVLMAATLLHDCVSVEKDSPFRAGASRLAAARARELLGDMGWDEESIASVAHAVEAHSFSAAITPVSLEAKILQDADRLDSLGMIGVARTFYVSGRMGKYLYEPNDPHASQRPYDDKRFAVDHFHTKLLHLADGFQTRTGTQMAKVRHDRLKRFLDELMEEIDASRPLEHHHHHH | not soluble |
| MAAEEATEFYLRYYVGHKGKFGHEFLEFEFREDGKLRYANNSNYKNDTIIRKEVFLTPAVLKECKRIVSESEILKEDDNNWPEPDRVGKQELEIVLGNEHISFATSKIGSLVDCQSSNDPEGLRIFYYLVQDLKCLVFSLISLHFKIKPILEHHHHHH | not soluble |
| MAAEIKQGDHKFYVGDDENNPKAVITFKEVDNNEIDIDHTGVSDELGGQGLGKKLVNRVVEHARENNLKIIASCPFAKNVLEKDDHAQDVYLGLEHHHHHH | soluble |
| MAAELVQLNPGQQVERWSIEKKLGEGGFGAVYRVFDATGKYAMKVEGANEQIQVLKLEVSVLNKLSKRGNRHFCKIEDKGRFGNFNYVVMTLVGKSLQDLNKAGVGGHMSMGCSIGIGIQSLEALEDLHNIGYLHRDVKPGNYTIGRPELNEIRKVYILDFGMCRKFTGNDGTIRKPRQAAGFRGTVKYAPISCHLQRELCRKDDLETWMYMQVELSHGTIPWQYISDMNQVGQAKQAIRNNLGSLFPPPCPHQFQDIMRMVDAMKYYDAPNYQAIYGMMRQAYGACGSNENAPYDWENGGPAAYLLH | not soluble |
| MAAERKTKLSKNLLRMKFMQRGLDSETKKQLEEEEKKIISEEHWYLDLPELKEKESFIIEEQSFLLCEDLLYGRMSFRGFNPEVEKLMLQMNAKHKAEEVEDETVELDVSDEEMARRYETLVGTIGKKFARKRDHANYEEDENGDITPIKAKKMFLKPQD | soluble |
| MAAHSFPLLRLPPKNLASVLRQVEIIEQIGLSLLSNKTKEYIRKFCDFKGFELSVWLHPYAVELELFKNGEGATHCSFRDGRACEHNEYPDGFTFDASQFFDMKSCLKHLLYILNPSKIAFLFYIQSNEVSDESQFQMTVDCLKGVKILKFSAKCIPQMNHIVRLVNAFPQTNRLSLVKNSNQPFQLSTLRQILHRKIQKLNLVIDITLNELLLNNSATSDFYSERLRGKDINLFLKHWAAGLKPELEYISFQISAVNFVESTILAGIPH | not soluble |
| MAAKPKLYYFNGRGRMESIRWLLAAAGVEFEEEFLETREQYEKMQKDGHLLFGQVPLVEIDGMMLTQTRAILSYLAAKYNLYGKDLKERVRIDMYADGTQDLMMMIAVAPFKTPKEKEESYDLILSRAKTRYFPVFEKILKDHGEAFLVGNQLSWADIQLLEAILMVEELSAPVLSDFPLLQAFKTRISNIPTIKKFLQPGSQRKPPPDGPYVEVVRIVLKF | soluble |
| MAALIRNLGARAAVAALSAKHVVPAAGSTALRMASTTPVEPKKADKPTVRQPDAVARSHLSDFGRYVAECLPKYVQKVQLTAGDELEVLIAPEGVVPVLQFLKDHHQAQFTNLVDIAGVDVPCRKNRFEVVYNLLSLRYNSRIRVKTYTDELTPLDSACEVHKAANWYEREIWDMYGVFFANHPDLRRILTDYGFEGHPQRRDFPLSGYVELRYDDEKKRVVCEPLELAQEFRKFDLSAPWEQFPNFRNANPPAEVVPPQAPAKK | not soluble |
| MAANKPKGQNSLALHKVIMVGSGGVGKSALTLQFMYDEFVEDYEPTKADSYRKKVVLDGEEVQIDILDTAGQEDYAAIRDNYFRSGEGFLCVFSITEMESFAATADFREQILRVKEDENVPFLLVGNKSDLEDKRQVSVEEAKNRAEQWNVNYVETSAKTRANVDKVFFDLMREIRARKMEDSKEKNGKKKRKSLAKRIRERCCIL | soluble |
| MAASAWCCLRCCRDGGTGHIPLKEMPAVQLDTQHMGTDVVIVKNGRRICGTGGCLASAPLHQNKSYFEFKIQSTGIWGIGVATQKVNLNQIPLGRDMHSLVMRNDGALYHNNEEKNRLPANSLPQEGDVVGITYDHVELNVYLNGKNMHCPASGIRGTVYPVVYVDDSAILDCQFSEFYHTPPPGFEKILFEQQIF | soluble |
| MAASTSSSSSSSSSSLSSPSPCTWRYMTFTSFHGPDVRNTFLSHLRKQFNTNGITMFDDQRMERSQTLAPTLTQAIRESKIYIVLLSKNYASSSWCLDELLEILNCKEKRGQRVMTIFYGVNPSDVRKQTGEFGIAFNETCARKTEEERRKWSHALTCVGNITGVHVQDRDDEANMIEKIATDVSEKLNATESKDFDEMVGIKAHLTKIESLLSLDYDKVKIVGISGPAGIGKSTIARALHNLLSSSFHLSCFMENLISQSNPHSSLEYSSKLSLQEQLLSQVLNEKDIRIRHLGAIQERLHDQRVLIILDDVTSLEQLEVLANIKWYGPGSRIIVITKKKDILVQHGICDIYHVGFPTDADALKIFCLSAYRQTSPPDGSMKIHECEMFIKICGNLPLHLHVLGSALRGRSYGRVQSLCNLVSLADFV | not soluble |
| MAATFPLSAGTYSINGRKYRKTAYNLKADTSFDLNTDTTFADTPDIYEDEASADCFAPPGLPELRKRAAKAKIVAKAVETSSKEPEPTEDDRIKVIGGKKWISSINVAPCFIGKLIGTNRRTLNSLENETQCRVKTPRRNENIACEISSIVSLECVQRCLDRLEIFIDDSRKTARVNHFVALPCDQHEVQENFNIFKQMVMESDHFDSSCKNSQLFTKPTRLHLTLSVARIFDDMDLQKAVGAFEILEKEIRQIKDSKPLIADIQGIDMMNDDPSQVFVLYAKVKGDKVQEVANYVNRRLIELGVSSKNEHDNGSDAVKLHMTLMNSRYVTQSEKSGKSKEAALFDAKQVLEDLKDSYFGTFELKEVNFDVKKFKQRI | not soluble |
| MAATITDDIVATVLESIEEKSYEDEKEKAGMIKDEANQFFKDQVYDVAADLYSVAIEIHPTAVLYGNRAQAYLKKELYGSALEDADNAIAIDPSYVKGFYRRATANMALGRFKKALTDYQAVVKVCPNDKDARAKFDECSKIVRRQKFEAAISTDHDKKTVAETLDINAMAIEDSYDGPRLEDKITKEFVLQLIKTFKNQQKLHKKYAFKMLLEFYNYVKSLPTMVEITVPTGKKFTICGDVHGQFYDLCNIFEINGYPSETNPYLFNGDFVDRGSFSVETIFTMIGFKLLYPNHFFMSRGNHESDVMNKMYGFEGEVKAKYTQQMCDMFTETFCWLPLCHLINEKIFVCHGGLFKEDGVTLEDIRKTDRNRQPPDEGIMCDLLWSDPQPINGRSPSKRGVGCQFGPDVTSKWCETNGIEYVVRSHEVKPEGYEMHHNGQCFTVFSAPNYCDQMNNKGAFITITGDNLTPRFTPFDAVPHPKLPPMAYANSLFGFN | not soluble |
| MAAVDSFQLLYREIARSCSGYVETLALVGACYMASKTVIFMRDCYSLIRLYFVPRLVRHRDLSQQYGQWAIICGASEAIAKAYAEELARHGICVILISKDLSSVSDTARLISNNYGVEAICIEADFNQGPSACKPIKDAISSKDIGFIVNSFDGTLEISQNFLELSESVLWGTIDRNIAATTLVTRLALPAMMERGRGAVVNISSGHCFHPIPRKAAFSASTAFLDNFSRSLQYEYGDQGVFVQSLLPFRVASQRPEGSAPPASWLVPSPQVYASHALSTLGISHRTTGYWPHSMQLGLVKMMPEWVWMLGSRVFTMAT | soluble |
| MACQTGIRANAALRNALNLGKQAKLRLIKIVVNNEEMTPNYEFAGTANWRDDWRACLPDCVDAYEPCFILFRLNTITEWVLITFVDDRAPVREKMLLAATCATFKSEFGQCYIEHEKHVTDLKDLTLNAFEAWLKAKTELGPMSEVERELHNAQQERAAIAHAGPQHMKGVAFPVDRNAEEALRQLASQKLSFVQLSVDTLNEAIKLEGTLESLEPSQLASKVPRDKPRYTFYNFDHTWEGVPQQCTLFIYSLPSSGSSIKERMLYSSCKGPFLSAAQNQYGVVITNKMEVDARDDLSEKALLEVIHPLPVEAPKQFSRPAPPRAGPRRITKV | not soluble |
| MADDDDRVDISNETLASLVGRPMSSSGNRIRATPSRRRLVSAPTNPRWSPSADDRRLFSYVSSMRSDSNSSSKSPSPPSAKMSKRPNGPYSVRKYQPRGSPPSDGSDKIHRFGESPTPGGVGGVFGTELDDLIIDELMGMEDDQRMRPGATRPMTIGGEKTMSMARPIPGASSRAGSGHSGSPITIPNAMSNNFRQVVSSSAPTSSIDIEKMIGAVSNGGGNSGGDNDPEDYYRDRRKKDIHNMIERRRRYNINDRIKELGQMLPKNTSEDMKLNKGTILKASCDYIRVLQKDREQAMKTQQQQKSLESTAHKYADRVKELEEMLARQGVQVPPSHLPPIPKVIERPIKQEIDESPPNHTPTGSFVSSSGFLSEVTNNTAAMQITSPNDSRPNNFMNNSAPSDSFFSVGSASPPDYRTSSGTASWKLPGSNAFSDLMMDDLNPMMNGDPLISSAGAHPSPHFHSSQMSPDIHWDASGFSPDPINTQQSNSGHYHMDFS | not soluble |
| MADFAARLNKLFDTVHPPGRKPHTNAEVAAALIADGHQISKPYISQLRSGQRTNPSDETVAAFARFFKVKPDYFFNDIYAAKIDHDLELLSQLQGYGLRKLSSRAFDLSEESQNLLTTMAEKLRASEGLPEVPPDASR | not soluble |
| MADFKVLSSQDIMWALHELKGHYAITRKDFESHQHMENLTSQDEVPRDTRPFLMPLKNGRSYHQKPVEKGKREKK | not soluble |

Source: the DeepSol protein solubility set
